Non-standard residues stand in square brackets, D forms with d. No end group written: not given here. *: point of attachment. Phe(4-I) = N[C@@H](Cc1ccc(I)cc1)C(=O)O; Fmoc = O=C(OCC1c2ccccc2-c2ccccc21)*

This passage reports percent bound results from patent publication US20200254116A1.

Substrate in this test: FBS (fetal bovine serum) proteins
The experiment in a line: FBS protein binding assay: 25 uM agent in 100% FBS, Amicon 10 K cutoff ultrafiltration, fluorescence of fractions.

B1: 4Iphf-HN18-IR800 (peptide)
peptide: Fmoc-[Phe(4-I)]LPNSNHIK(IRDye800)QGL
For B1, the percent bound came out at 70%.

B2: HN1-IR800 (peptide)
peptide: TSPLNIHNGQK(IRDye800)L
Consider B2, for which the percent bound was 52%.
